The series can be described thus: label from the status in PepcDB records.

With “MIKLPVLLADINIQSLPTEPELILNNLAITTLVENLIILLLVATLVALVARWLKIPYVIGLVLAGLAIPRGLSVGLNPELILNFFLPILIFEAAINTDISRLRSTIKPITVLAGPGVVISAAITAVLLKIGLGLAWVTAAGVSVILTITDTVSVIAAFRSVPVPRRLATIVEGESMLNDGVAMVLLSVITTIHIQGGFSAGEGIRQIFVAFVGGGLVGLGLGYLCVGLFRQLNDDLSDILLTVSVSLGTFQIGQMLGVSSAIAVVVAGLVIGNLALKQTSASIKVTLLSFWEYAGFGVNTLIFLLVGIEVYPSILLSTIPAALIAIVAYQIGRVFSIYPLLYLLSFFDRPLPLRWQHVLIAGNVKGSLSMALALALPLTLPGRDQVVTLVFSTVMVSLIGQGLSLPWVVKKLQLSKPSPLAQKIAMLQLNLVTAKAAQGELKYLLEAGSLPKFLYEELFADYQARIANSEQELREFYNQRNLIFSEGEVEKKYIDGLYRRLYIAEKSAINDALAKGILADDISDEYLQVLNEKLLALQDD”, the protein production entry is “failed”. Then “MIKLYSPYAFLSKYLGAILLSFFCYYAKEIGCNNLTLSVWNDNEGALRFYQRQGMKPQETTMEMIID”, with “failed”; and “MIKPELPSNEAERLAALRQYDVLDSPAERAFDDLTMIASTLCETQMAAVVLVDEDRQWFKSAHGAPRSEAPRDISFCAHAILRPDEVLMVDDTLLDPRFHDNPMVVGSGGVRFYAGAPLVTSQGMALGSLCVFDQAPAHLREDQREALQALSRQASQLLELRLAGRQLRQQLHEREWYEQQMAGYYAQMDALHADLVEQTRTDPLTGLPNRRAFAVALAAATEQTRAVGQPLSVALLDVDHFKTVNDVHGHDQGDAVLRELSTLLRAHMAGAGTIARYGGEEFVLLLPNANLLQARVQCEYLRQSVAAMTIALPVTVSIGVATLYPQESVEAVIKRADQALYAAKRGGRDQVVALE”, with “failed”. Then “MIKSIKKNLKPKILISNLILIIGIVIFVTLYGAVFGSANSLVGVCAITAMLMFVDVHLSLKLNEAIITTVLSFVLMGVSSQIASINPFLGFVVNFISIFVVSYLVTNAMETKAYLPFILCYVFIEGTPITWSELPRRLIALFVGGALIALVYYFSHRKKDDSDHMNISEMIKTMNKNTLQFNFSLRMALAVSIAMLLGSILGFQKSMWISITAMSITQPHFDDTKTRVKERFFGTLIGSAIFVLIFVYIVPQQFSSIVLLILSYIYTFIKEYKIKMIFITMSSLGAAMILFQPGVSVPMRIAFIVMGIGIALVVNKVIYGRLKLEESNEELDETIKDIDKVNDEF”, with “failed”. For “MIKTEKNQTSKVTDEVDQLVQRSKKALAILKSYTQAQIDDLCEKVAVAALDNHMKLAKLAVEETGRGVVEDKAIKNIYASEYIWNSMRHDKTVGVIKEDDEEQLMEIAEPVGIVAGVTPVTNPTSTTVFKTLISLKGRNTIVFGFHPQAQKCSSAAADVMREAIKAAGGPADAVLYIEHPSIEATDALMHHTDVATILATGGPSMVTAAYSSGKPALGVGPGNGPTYVEKTADIKQAVNDIVLSKTFDNGMICASE”, the protein production result is “failed”. As for “MIKVKSPGRVNLIGEHTDYTYGYVMPMAINLYTKIEAEKHGEVILYSEHFGEERKFSLNDLRKENSWIDYVKGIFWVLKESDYEVGGIKGRVSGNLPLGAGLSSSASFEVGILETLDKLYNLKLDSLSKVLLAKKAENEFVGVPCGILDQFAVVFGREGNVIFLDTHTLDYEYIPFPKDVSILVFYTGVRRELASSEYAERKHIAEESLKILGKGSSKEVREGELSKLPPLHRKFFGYIVRENARVLEVRDALKEGNVEEVGKILTTAHWDLAKNYEVSCKELDFFVERALKLGAYGARLTGAGFGGSAIALVDKEDAETIGEEILREYLKRFPWKARHFIVEPSDGVGI”, the protein production result is given as “not failed”. With “MILLSFNILVLYQNVQISLSSGICFRLYSEVLSYILIYVAVWLTLYGIDLLNTVYGASDSRSVSKSAVSKRTLAVLPCSSCRINKRCIENGHLQSATNKTSFVC”, the protein production entry is “failed”.

With “MILPEYNETDFMQAVINAAPTPIFYKDAQGRYLGCNKAFEEYIGLNREQLIGKSVLELFDDELARTYFEADNALFERKGTQIYEAKVEYADGTTHDVMFHKAYFHAEGIEGIVGSILDITERKKAEKSLEQLALSDSLTGLDNRYSLMKSLKHSLLRQHRENFTLAFLMLDLDGFKQINDNYGHPVGDALLIEVANKLKNHFRESDVIARVGGDEFSVILENIHSTESLIVLANNILAEFLKPFVIDNNKFTIGISIGIATSSFSECSSEDIIKHADAALYQVKNSGKGSYHLTVVN”, the protein production result was “failed”. In the case of “MILPPIPTPFDREGRLDEEAFRELAQALEPLVDGLLVYGSNGEGVHLTPEERARGLRALRPRKPFLVGLMEETLPQAEGALLEAKAAGAMALLATPPRYYHGSLGAGLLRYYEALAEKMPLFLYHVPQNTKVDLPLEAVEALAPHPNVLGIKDSSGDLSRIAFYQARLQEFRVYTGHAPTFLGALALGAEGGILAAANLAPRAYRALLDHFREGRLAEAQELQKKLFPLGDLLAKGGVPLLKQALRHLGLPAGYPRPPYPAESPLWERFLPVLEGLKEEGWVL”, the protein production entry was “not failed”. With “MILPTKAMATQELTVKRKLSGNTLQVQASSPVALGVRIPTVALHMMELFDTTVEQLYSIFTVKELTNKKIIMKWRCGNWPEEHYAMVALNFVPTLGQTELQLKEFLSICKEENMKFCWQKQHFEEIKGSLQLTPLNG”, the protein production entry is reported as “failed”.

As for “MILQSTSLFCKYINNCRYINREIVATLKASPQGLARIKQARSDRGWSVDDFRWLELASEILGVCWQENGVLAAGISEGTWKRFLAGKQAINAEAFKAYCQVLGLNWEEVQEGGRTKERKDTGTSRQEKFLSSSHPHTDWGEAPDVSIFYGRSEELDTVKRWVTQENCRLITLLGMGGIGKTTLSVKLAQEIINSEKIYLSQSPEYIIWRSLRNAPPVEDILAELIQFLSGQQETNLSNHLQGRISLLLKNLRSSRCLIILDNAESILQAGDRNGRYRAGCEGYGQFLQCIAETSHQSCLILTSREKPQGLAKYEGDSLPVRSLPLTGLQEQEGRELFNVKGKFAASCDQWQVLISRYGGNPLALKIVASSIRDFFDGDVSQFLEVSQQGTFIFDDIRDLLDQQFQRLTTLEREIMYWLAINREPVTLAELQADFVANIPPRELLESLSSLQRRSLIEKSAGGFTQQPVVMEYVSNHLIEQVCEEMREWGLVRSRGAEEQRSRGEKIHTQYKLNAALPLTALSTPLFTTHALIKAQAKDYVRESQISLILQPLINQLITEFGSLENISNCLVHILSRLRGKSPQETGYAGGNVLNLLHHAQVDLSGYDFSGLTVWQAYLQGVNLHDVDFANSDLSCCVFTETLGNILSAAFSPEGQLLATCDTDCHVRVWEVKSGKLLLICRGHSNWVRFVVFSPDGEILASCGADENVKLWSVRDGVCIKTLTGHEHEVFSVAFHPDGETLASASGDKTIKLWDIQDGTCLQTLTGHTDWVRCVAFSPDGNTLASSAADHTIKLWDVSQGKCLRTLKSHTGWVRSVAFSADGQTLASGSGDRTIKIWNYHTGECLKTYIGHTNSVYSIAYSPDSKILVSGSGDRTIKLWDCQTHICIKTLHGHTNEVCSVAFSPDGQTLACVSLDQSVRLWNCRTGQCLKAWYGNTDWALPVAFSPDRQILASGSNDKTVKLWDWQTGKYISSLEGHTDFIYGIAFSPDSQTLASASTDSSVRLWNISTGQCFQILLEHTDWVYAVVFHPQGKIIATGSADCTVKLWNISTGQCLKTLSEHSDKILGMAWSPDGQLLASASADQSVRLWDCCTGRCVGILRGHSNRVYSAIFSPNGEIIATCSTDQTVKIWDWQQGKCLKTLTGHTNWVFDIAFSPDGKILASASHDQTVRIWDVNTGKCHHICIGHTHLVSSVAFSPDGEVVASGSQDQTVRIWNVKTGECLQILRAKRLYEGMNITGVTGLTKATIFTLQALGALR”, the protein production entry was “failed”. Then “MILSLCCLGSWPAILTLLERRGRLPQHTFLDFATANLLAAIVIAFSLGEIGKSTFLKPDFTTQLPQDNWPSVLLAVAGGVLLSIGNLATQYAFAFVGLSVTEVITASITVVIGTTLNYFLDNKINKAEILFPGVGCFLIAVFLGAAVHASNAADVKEKLKSLPSEDLYSSIENGEDKPEIEKTDVESQEKLAEKAKAGTAGFYVELENKRAIKVFGKSIMIGLFITLFAGISLSLFSPAFNLATNDQWSTLPKGVPKLVVYTAFFYFSIAGFLISLILNLIFLYRPMVGLARSSLKKYIYDSKGRGWAVFAGFLCGFGNGLQFMGGQAAGYAAADSVQALPLVSTFWGIVLFGEYRKSSKRTYALLVSMLAMFVAAVAILMASSGHRK”, with “failed”; and “MILTYHNMYYYQNESRDIAAALLIMTLAFFILLNGLGFYGLLSLIYLAIAFLVVVTAFLFHELAHRAVARRLGAVAFFKLWPIGAFLALITSLFHFLFAAPGAVEFAGVYDNESQGKIALAGPATNIIIGIITYILSIFSLGIVHYVLYYVGALNLWFALFNMIPIPPLDGSKVFYWKGSIFAGVFVFTIIMNIVDGFLLHII”, with “failed”; and “MILVPIDISDKEFTERIISHVESEARIDDAEVHFLTVIPSLPYYASLGMAYTAELPGMDELREGSETQLKEIAKKFSIPEDRMHFHVAEGSPKDKILALAKSLPADLVIIASHRPDITTYLLGSNAAAVVRHAECSVLVVR”, with “not failed”. Then “MIMANWQSIDELQDIASDLPRFTHALDELSRRLGLDITPLTADHISLRCHQNVTAERWRRGFEQCGELLSENMINGRPICLFKLHEPVQVAHWQFSIVELPWPGEKRYPHEGWEHIEIVLPGDPETLNARALALLSDEGLSLPGISVKTSSPKGEHERLPNPTLAVTDGKTTIKFHPWSIEEIVASEQSA”, with “not failed”. Then “MIMFNYQQTSQSCVKCGKCIPSCTIYNIHPDEVTSPRGFIDLLGAYQRGELELDKNAKDIFEKCFLCTNCTYVCPNLLPTDQVIENVRAEIAQKFGIAWFKRAYFFLLRNRWLMDWGFALGSVFTPLLFKNLPKHQSVKPRFKLPLIGERVFMWLRFKSFMESYPEETLNSDRENPRRVAIFIGCLANYNYTKIGDSLMEILKELRIDAFIPKKQQCCGAPAYFTGDFPTVDKLIKQNVTYFESFIDEVEAIIIPEATCSAMILEDWERFMHNQPEWRERIARLLPKIFIASDWLYHKTDLLKRLEALSVKMDKSITYHDPCHARKVLGVFKEPRALLGANYKIVEMSDPNQCCGFGGVTLQTEKYQYSKKVGIAKTKMIQETGAKIVSAECSACRMQLTNALDHEKIDVEFAHPLELIAEALKARG”, with “failed”; and “MINEFFKETVWEEAWKEDQQTAVNKMKKAGMDKVHHFDLRAKSFNEQAFNEEGRKRTKRIMKWLEGQGVTFKDTSILDIGAASGGFTVPFAERGAEVTAVEPSLPLVELMKENITGITNGKVKIVAEPFEDIDIQAKGWGNAFDFVFVSMCPAIADWESVKRVLSCARQFCYISLSAGSREHSLLNEIWPLVSDQPLKNEHSEMAYLLHLLFLKGYTYESLVTREMKTREVSRETALNEVMDMLRMFGLPADDRNRKITAAYLERTYPNDKVEIRQGGRFGKVLIRLQNQNMYMNS”, with “failed”; and “MINEHYIPQAVILANGEYPAHELPLRLLAEAQFVVCCDGAANEYISRGHTPDVIIGDGDSLLPEYKKRFSSIILQISDQETNDQTKAVHYLQSKGIRKIAIVGATGKREDHTLGNISLLVEYMRSGMEVRTVTDYGTFIPVSDTQSFASYPGQQVSIINFGAKGLKAEGLFYPLSDFTNWWQGTLNEAIADEFTIHCTGEYLVFLAY”, with “not failed”.

Source of the values: a protein production outcome set (Wang et al. 2014).
